Tests used:
[1] = test system: His-TRIM25 (Homo sapiens); assay: EMSA; details: 3 mM Mg2+, 0.5 mM ATP; EMSA: 4.8 mM Tris pH 8, 144 mM NaCl, 0.96 mM DTT, 3 mM MgCl2, 0.5 mM ATP, 37.5 mM creatine phosphate, 16 uL, ~0.1 pmol RNA, 4 C 1 h; pull-down conditions not …
[2] = molecular target: the molecule itself; assay: SEC-MALS; approximately 0.75 mg/mL on Superdex200 Increase 10/300 GL, 1.0 mL/min, 10 mM Tris (pH 8.0), 300 mM NaCl, 0.5 mM TCEP; self-association (tetramer)

Molecule	Kd [1] [nM]	stoichiometry N [2]
pre-let-7a-1	800	
recombinant His-tagged TRIM25ΔRBD (lacking residues 470–508) (natural protein, human, UniProt Q14258 1-630, looked up) MAELCPLAEELSCSICLEPFKEPVTTPCGHNFCGSCLNETWAVQGSPYLCPQCRAVYQARPQLHKNTVLCNVVEQFLQADLAREPPADVWTPPARASAPSPNAQVACDHCLKEAAVKTCLVCMASFCQEHLQPHFDSPAFQDHPLQPPVRDLLRRKCSQHNRLREFFCPEHSECICHICLVEHKTCSPASLSQASADLEATLRHKLTVMYSQINGASRALDDVRNRQQDVRMTANRKVEQLQQEYTEMKALLDASETTSTRKIKEEEKRVNSKFDTIYQILLKKKSEIQTLKEEIEQSLTKRDEFEFLEKASKLRGISTKPVYIPEVELNHKLIKGIHQSTIDLKNELKQCIGRLQEPTPSSGDPGEHDPASTHKSTRPVKKVSKEEKKSKKPPPVPALPSKLPTFGAPEQLVDLKQAGLEAAAKATSSHPNSTSLKAKVLETFLAKSRPELLEYYIKVILDYNTAHNKKGIHYWEVELQKNNFCGVGICYGSMNRQGPESRLGRNSASWCVEWFNTKISAWHNNVEKTLPSTKATRVGVLLNCDHGFVIFFAVADKVHLMYKFRVDFTEALYPAFWVFSAGATLSICSPK		4

From PMC5678581 (BMC Biology, 2017)
